Measurements published in US20100136061A1 (LA JOLLA INSTITUTE FOR ALLERGY AND IMMUNOLOGY, published 2010).

B1: DcR3-Fc (human Decoy Receptor 3 Fc fusion) (Fc fusion, UniProt O95407 30-300, looked up)
chain: VAETPTYPWRDAETGERLVCAQCPPGTFVQRPCRRDSPTTCGPCPPRHYTQFWNYLERCRYCNVLCGEREEEARACHATHNRACRCRTGFFAHAGFCLEHASCPPGAGVIAPGTPSQNTQCQPCPPGTFSASSSSSEQCQPHRNCTALGLALNVPGSSSHDTLCTSCTGFPLSTRVPGAEECERAVIDFVAFQDISIKRLQRLLQALEAPEGWGPTPRAGRAALQLKLRRRLTELLGAQDGALLVRLLQALRVARMPGLERSVRERFLPVH
notes: also called human DcR3; not shown: Fc part
B2: Full Length Human LIGHT, predominant form (32S-214E), expressed on EL4 cells (ligand)
chain: MEESVVRPSVFVVDGQTDIPFTRLGRSHRRQSCSVARVGLGLLLLLMGAGLAVQGWFLLQLHWRLGEMVTRLPDGPAGSWEQLIQERRSHEVNPAAHLTGANSSLTGSGGPLLWETQLGLAFLRGLSYHDGALVVTKAGYYYIYSKVQLGGVGCPLGLASTITHGLYKRTPRYPEELELLVSQQSPCGRATSSSRVWWDSSFLGGVVHLEAGEEVVVRVLDERLVRLRDGTRSYFGAFMV
notes: Stably expressed on mouse EL4 thymoma cells by retroviral transduction; also called p30 polypeptide; TNFSF-14

Tests used:
[1] = target: T1, Heterotrimeric human LIGHT 32L-214E/32S-214K (combination of LIGHT-S32L and LIGHT-E214K subunits) expressed … (human, UniProt O43557 1-240; O43557 1-240); assay: competition flow cytometry, graded DcR3-Fc against constant LTβR-Fc on LIGHT expressing EL4 cells
T1 construct: Both polymorphic forms co-expressed in EL4 cells; also called combination of LIGHT-E214K and LIGHT-S32L
T1 chain 1: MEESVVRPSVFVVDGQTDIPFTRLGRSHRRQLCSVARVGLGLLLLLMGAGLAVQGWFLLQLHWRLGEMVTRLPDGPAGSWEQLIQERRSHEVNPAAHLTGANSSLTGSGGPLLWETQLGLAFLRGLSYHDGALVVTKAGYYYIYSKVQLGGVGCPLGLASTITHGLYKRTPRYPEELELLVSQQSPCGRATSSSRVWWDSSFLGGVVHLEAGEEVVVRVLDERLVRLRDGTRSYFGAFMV
T1 chain 2: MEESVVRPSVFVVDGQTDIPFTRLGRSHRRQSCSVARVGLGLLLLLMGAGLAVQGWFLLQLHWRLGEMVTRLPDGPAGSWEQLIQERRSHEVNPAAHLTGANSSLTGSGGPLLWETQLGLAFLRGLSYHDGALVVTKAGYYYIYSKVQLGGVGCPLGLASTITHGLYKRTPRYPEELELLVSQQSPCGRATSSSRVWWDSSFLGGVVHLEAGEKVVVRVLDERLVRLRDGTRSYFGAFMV
Experimental: (§1) FIGS. 11A-11B. Competition binding assay for LTβR-Fc to LIGHT expressing EL4 cells in the presence of DcR3. […] Specific LTβR-Fc binding to the LIGHT expressing EL4 cells was detected with an anti-LTβR monoclonal antibody (BD-A8). (B) IC50 values were calculated by nonlinear regression analysis using Prism GraphPad (v4; San Diego, USA).

[2] = target: B1; assay: as above
Experimental: as §1

Row | Binder | IC50 ratio against the predominant form of LIGHT (SEQ ID NO:1) [1] [times] | binding result [2]
1 | B1 | ~2.5 | –
2 | B2 | – | binds
